{"source": "paper PMC11109247", "key": {"[1]": {"molecular_target": "HeV G ectodomain (Hendra virus attachment glycoprotein, residues 71-604), Strep-tagged (Hendra virus) (UniProt O89343)", "assay": "SDS-PAGE without reduction and boiling"}, "[2]": {"molecular_target": "NiVMY G ectodomain (Nipah virus Malaysia attachment glycoprotein, residues 71-602), Strep-tagged (Nipah virus (Malaysia strain)) (UniProt Q9IH62)", "assay": "SDS-PAGE without reduction and boiling"}, "[3]": {"molecular_target": "prefusion soluble NiV F (sF; NiVBD fusion protein residues 26-482 with GCNt motif) (Nipah virus Bangladesh (NiVBD))", "assay": "BLI"}, "[4]": {"molecular_target": "prefusion soluble NiV F (sF; NiVBD fusion protein residues 26-482 with GCNt motif) (Nipah virus Bangladesh (NiVBD))", "assay": "MST"}}, "note": "“And” between values parts separate entries of the source, which are not always exact repeats. Equal values may be shown once.", "data": [{"substance": "HeV G ectodomain (Hendra virus attachment glycoprotein, residues 71-604), Strep-tagged (from UniProt O89343 71-604) (domain or fragment)", "values": [{"measurement": "stoichiometry N", "setting": "[1]", "result": "4 and 2"}]}, {"substance": "NiVMY G ectodomain (Nipah virus Malaysia attachment glycoprotein, residues 71-602), Strep-tagged (from UniProt Q9IH62 71-602) (domain or fragment)", "values": [{"measurement": "stoichiometry N", "setting": "[2]", "result": "4 and 2"}]}, {"substance": "P-59 (peptide of NiVBD G, 233-247 aa)", "values": [{"measurement": "Kd", "setting": "[3]", "result": 190, "unit": "nM"}, {"measurement": "Kd", "setting": "[4]", "result": 5000, "unit": "nM"}]}]}
